The record followed here is publication PMC11156954, “Inhibition and transport mechanisms of the ABC transporter hMRP5” (Nature Communications, 2024).

Test [1] addresses T1, hMRP5-Δ1-94 (human, UniProt O15440 95-1437).
T1 construct: human multidrug resistance protein 5 (MRP5, ABCC5), UniProt O15440, without the flexible N-terminal region Met1-Thr94; This is the construct used for cryo-EM; Plasmids and primers are in Supplementary Data 1 and 2; also called hMRP5-Δ1-94 truncation mutant; apo form; source: HEK293F, transfected, purified (strep-Tactin, SEC on Superose 6 Increase, digitonin)
Put plainly: cryo-EM structure; peptide M5PI and hMRP5-Δ1-94 incubated on ice at a ratio of 2:1 for 1 h before vitrification; digitonin. The following applies: both partners purified.

Test [2] has as its target T2, hMRP5-Δ1-94-8xHis (human, UniProt O15440 95-1437, RED-tris-NTA 2nd Generation dye on the His tag).
T2 construct: human multidrug resistance protein 5 (MRP5, ABCC5), UniProt O15440, without the flexible N-terminal region Met1-Thr94; Plasmids and primers are in Supplementary Data 1 and 2; source: HEK293F, transfected; digitonin-purified (HEPES buffer instead of Tris)
Put plainly: MST; digitonin-purified hMRP5-Δ1-94-8xHis labelled with RED-tris-NTA 2nd Generation dye; serially diluted peptides; 15 min at room temperature; HEPES buffer; 3% LED/excitation power, medium MST power (Monolith NT). The following applies: both partners purified.

T2 sequence (O15440 95-1437, stated change not applied): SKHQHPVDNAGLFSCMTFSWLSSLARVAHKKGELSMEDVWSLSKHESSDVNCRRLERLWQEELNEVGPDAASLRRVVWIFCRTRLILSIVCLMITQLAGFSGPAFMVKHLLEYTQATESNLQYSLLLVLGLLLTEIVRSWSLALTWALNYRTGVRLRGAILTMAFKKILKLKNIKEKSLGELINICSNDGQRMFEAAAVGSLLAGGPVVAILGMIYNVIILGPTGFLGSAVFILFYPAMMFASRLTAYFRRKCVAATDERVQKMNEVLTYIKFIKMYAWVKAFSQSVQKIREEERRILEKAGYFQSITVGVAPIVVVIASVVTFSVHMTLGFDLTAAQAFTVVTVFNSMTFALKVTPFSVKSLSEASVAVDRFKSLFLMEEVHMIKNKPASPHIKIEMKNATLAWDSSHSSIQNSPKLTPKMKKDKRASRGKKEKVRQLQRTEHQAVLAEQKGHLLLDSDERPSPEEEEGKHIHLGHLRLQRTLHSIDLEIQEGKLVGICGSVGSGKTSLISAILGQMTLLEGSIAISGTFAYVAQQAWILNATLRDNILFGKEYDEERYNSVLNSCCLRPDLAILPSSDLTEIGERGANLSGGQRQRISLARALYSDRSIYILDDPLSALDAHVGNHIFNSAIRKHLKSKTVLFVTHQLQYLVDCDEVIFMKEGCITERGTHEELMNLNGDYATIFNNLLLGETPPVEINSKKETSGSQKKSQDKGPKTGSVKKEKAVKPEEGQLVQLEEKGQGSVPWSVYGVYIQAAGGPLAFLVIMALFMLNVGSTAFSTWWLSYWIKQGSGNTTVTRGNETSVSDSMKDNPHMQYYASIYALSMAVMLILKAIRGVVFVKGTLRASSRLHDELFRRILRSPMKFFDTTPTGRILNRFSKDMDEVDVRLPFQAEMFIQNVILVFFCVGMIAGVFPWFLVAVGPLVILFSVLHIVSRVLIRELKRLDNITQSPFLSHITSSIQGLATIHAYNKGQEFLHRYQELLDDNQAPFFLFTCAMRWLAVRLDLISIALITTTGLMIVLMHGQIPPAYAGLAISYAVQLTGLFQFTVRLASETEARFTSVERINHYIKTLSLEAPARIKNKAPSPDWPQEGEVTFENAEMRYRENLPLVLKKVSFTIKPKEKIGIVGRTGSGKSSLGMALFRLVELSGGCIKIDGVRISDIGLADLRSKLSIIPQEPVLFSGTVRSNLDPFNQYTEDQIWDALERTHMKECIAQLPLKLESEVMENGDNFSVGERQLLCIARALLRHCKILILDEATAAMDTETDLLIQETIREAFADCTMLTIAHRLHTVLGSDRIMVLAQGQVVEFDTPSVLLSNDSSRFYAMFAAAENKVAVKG
T1 sequence (O15440 95-1437, stated change not applied): as above

B1: MRP5 potential peptide inhibitor (M5PI) (peptide, UniProt O15440 35-75, looked up)
peptide: CSKFRRTRPLECQDALETAARAEGLSLDASMHSQLRILDEC
notes: stretch 35-75 of the N-terminal loop of human MRP5 (UniProt O15440) with both terminal residues replaced by cysteine; The cysteines were meant for cyclisation; also called D35C-E75C; Asp35Cys-Glu75Cys; source: synthetic peptide (GL Biochem, Shanghai)
For B1, the binding result in test [1] and in test [2] was “binds” throughout.
